Target: TGF-βRII-Fc (muTGFbRII-mFc) (mouse (from the printed name muTGFbRII-mFc)) (UniProt Q62312)
Assay: SPR; Biacore T100; TGF-βRII-Fc captured (~50 RU) by an anti-mouse Fc antibody amine-coupled to a CM5 chip; TGF-β2 injected at 0.04-90 nM (0.12-90 nM used for the fit); HBS-EP with 350 mM NaCl and 0.5 mg/mL BSA; steady-state affinity model

TGF-βRII-Fc (muTGFbRII-mFc) (mouse (from the printed name muTGFbRII-mFc)), sequence (Q62312 24-166): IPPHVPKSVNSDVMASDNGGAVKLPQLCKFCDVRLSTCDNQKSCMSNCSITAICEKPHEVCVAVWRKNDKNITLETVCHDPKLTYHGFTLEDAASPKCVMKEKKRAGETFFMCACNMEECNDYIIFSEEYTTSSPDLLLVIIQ

- Kd: 11.6 nM
Substance: Transforming growth factor-β2 (TGF-β2) (ligand)
